From the nanobody polyreactivity screen of Harvey et al. (2022)

Experiment: yeast display, Sf9 membrane polyspecificity reagent, FACS + sequencing; frameworks hold sequencing errors
Outline: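 Nanobodies from a synthetic yeast display library (Saccharomyces cerevisiae BJ5465), induced 36–48 hours with galactose, were stained 1 hour at 4 °C with 10% biotinylated, detergent-solubilized Sf9 membrane reagent, enriched on streptavidin microbeads, then FACS-sorted. Anti-HA (expression) and streptavidin (reagent binding) fluorescence set low and high (top ~1%) gates. Polyreactivity labels come from the gate of origin. Genes were colony-PCR amplified, MiSeq 2 × 250 sequenced and filtered by CDR length.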
With “QVQLVESGGGLVQAGGSLRLSCAASGSIFEQNAMGWYRQAPGKERELVAAITWSGDSTYYADSVKGRFTISRDNAKNTVYLQMNSLKPEDTAVYYCAKEFGGTKRYGWYNYWGQGTQVTVSS” the “polyreactivity (PSR sort gate)” value was “low polyreactivity”. In the case of “QVQLVESGGGLVQAGGSLRLSCAASGSIFERNAMGWYRQAPGKERELVAVITGSGGSTYYADSVKGRFTISRDNAKNTVYLQMNSLKPEDTAVYYCAAPVHTASGRWVPGYYYWGQGTQVTVSS”, the “polyreactivity (PSR sort gate)” value is reported as “high polyreactivity”. With “QVQLVESGGGLVQAGGSLRLSCAASGSIFERYAMGWYRQAPGKERELVAAITWTGGSTYYADSVKGRFTISRDNAQNTVYLQMNSLKPEDTAVYYCAADYLYPLWGWYDYWGQGTQVTVSS” the “polyreactivity (PSR sort gate)” value was “low polyreactivity”. For “QVQLVESGGGLVQAGGSLRLSCAASGSIFESNAMGWYRQAPGKERELVADITYRGTRTYYADSVKGRFTISRDNAKNTVYLQMNSLKPEDTAVYYCAVWQDHYDWGQGTQVTVSS”, the “polyreactivity (PSR sort gate)” value was “low polyreactivity”. With “QVQLVESGGGLVQAGGSLRLSCAASGSIFESYAMGWYRQAPGKEREFVAAISDSGADTYYADSVKGRFTISRDNAKNTVYLQMNSLKPEDTAVYYCNADKEFAVLGQGMDYWGQGTQVTVSS” the “polyreactivity (PSR sort gate)” value was “low polyreactivity”. In the case of “QVQLVESGGGLVQAGGSLRLSCAASGSIFESYAMGWYRQAPGKERELVAAIDSGDSTYYADSVKGRFTISRDNAKNTVYLQMNSLKPEDTAVYYCAAGYLFLKRIWQSRMDYWGQGTQVTVSS”, the “polyreactivity (PSR sort gate)” value is reported as “low polyreactivity”. With “QVQLVESGGGLVQAGGSLRLSCAASGSIFESYAMGWYRQAPGKERELVAAITKRGGSTYYADSVKGRFTISRDNAKYTVYLQMNSLKPEDTAVYYCNARWPGIGPIYDYWGQGSQVTVSS” the “polyreactivity (PSR sort gate)” value was “low polyreactivity”. For “QVQLVESGGGLVQAGGSLRLSCAASGSIFESYAMGWYRQAPGKERELVAAITSSGDSTYYADSVKGRFTISRDNAKNTVYLQMNSLKPEDTAVDYCAKRVPTYISTADWGSRYDYWGQGTQVTVSS”, the “polyreactivity (PSR sort gate)” value was “low polyreactivity”. For “QVQLVESGGGLVQAGGSLRLSCAASGSIFEVNAMGWYTQAPGKERELVATITYSGGSTYYADSVKGRFTISRDNAKNTVYLQMNSLKPEDTAVYYCATDYVDWELYIYDYWGQGTQVTVSS”, the “polyreactivity (PSR sort gate)” value was “low polyreactivity”. For “QVQLVESGGGLVQAGGSLRLSCAASGSIFEWYAMGWYRQAPGKERELVAAINSGGSTYYADSVQGRFTISRDNAKNTVYLQMNSLKPEDTAVYYCNYDTLLQDRLGDWYDYDYWGQGTQVTVSS”, the “polyreactivity (PSR sort gate)” value was “low polyreactivity”. For “QVQLVESGGGLVQAGGSLRLSCAASGSIFEWYAMGWYRQEPGKERELVADITYNGGSTYYADSVKGRFTISRDNAKNTVYLQMNSLKPEDSAVYYCNKDIERYVSIYDSWGQGTQVTVSS”, the “polyreactivity (PSR sort gate)” value was “low polyreactivity”. In the case of “QVQLVESGGGLVQAGGSLRLSCAASGSIFEYYAMGWYREAPGKERELVAAITSSGASTYYADSVKGHFTISRDNAKNSVYLQMNSLKPEDTAVYYCAKEVIRYSQYIFDYWGQGTQVTVSS”, the “polyreactivity (PSR sort gate)” value is reported as “low polyreactivity”. With “QVQLVESGGGLVQAGGSLRLSCAASGSIFEYYAMGWYRQAPGKERELVASITSGGRTYYADSVKGRFTISRDNAKNTVYLQMNSLKPEDTAVYYCAAAYYNWGYTFYWGQGTQVTVSS” the “polyreactivity (PSR sort gate)” value was “high polyreactivity”. For “QVQLVESGGGLVQAGGSLRLSCAASGSIFEYYTMGWYRQAPGKEREFVAAITFTGDSTYYADSVKGRFTISRDNAKNTVYLQMNSLKPEDTAVYYCNADSVTYDGEYDYWGQGTQVTVSS”, the “polyreactivity (PSR sort gate)” value was “low polyreactivity”. With “QVQLVESGGGLVQAGGSLRLSCAASGSIFEYYVMGWYRQAPGKERELVAAISYSGDSTYYADSVKGRFTISRDNAKNTVYLQMNSLKPEDTAVYYCAAQYTRVIPPGYDYWGQGTQVTVSS” the “polyreactivity (PSR sort gate)” value was “high polyreactivity”. With “QVQLVESGGGLVQAGGSLRLSCAASGSIFFDGNAMGWYRQAPGKERELVAAISVSGGSTYYADSVKGRFTISRDNAKNTVYLQMNSLKPEDTAVYYCAKYPSKSFVPGDYWGQGTQVTVSS” the “polyreactivity (PSR sort gate)” value was “low polyreactivity”. With “QVQLVESGGGLVQAGGSLRLSCAASGSIFFEYAMGWYRQATGKERELVAAISRRGGSTYYADSVKGRFTISRDNAKNTVYVQMNSLKPEDTAVYYCNKVNRASRGDYDYWGQGTQVTVSS” the “polyreactivity (PSR sort gate)” value was “high polyreactivity”. For “QVQLVESGGGLVQAGGSLRLSCAASGSIFFFYALGWYRQAPGNERELVAAISKSPSSTYYADSVKGRFTISRDNAKKTVYVQMNSLKPEDTAVYYCNTGYSGIQYYYWGQGTQVTVSS”, the “polyreactivity (PSR sort gate)” value was “low polyreactivity”. With “QVQLVESGGGLVQAGGSLRLSCAASGSIFFINAMGWYRQAPGKERELVADITSGGGTYYADSVKGRFTISRDNAKNTVYLQMNSLKPVDTAVYYCAKEYGFTGYGYWGQCTQVTVSS” the “polyreactivity (PSR sort gate)” value was “low polyreactivity”. With “QVQLVESGGGLVQAGGSLRLSCAASGSIFFKYTLGWYRQAPGKERELVAAISYSGGRTYYADSVKGRFTISRDTAKNTVYLQMNSLKPEDTAVYDGATRDEITHGDRMDYWGQGTQVTVSS” the “polyreactivity (PSR sort gate)” value was “low polyreactivity”. For “QVQLVESGGGLVQAGGSLRLSCAASGSIFFKYTMGWYRQAPGKERELVAAITYTGGRTYYADSVKGRFTISRDNAKNTVYLQMNSLKPEDTAVYFCNKVTPRQGNRLAGVSGYDYWGQGTQVTVSS”, the “polyreactivity (PSR sort gate)” value was “high polyreactivity”. For “QVQLVESGGGLVQAGGSLRLSCAASGSIFFLYAMGWYRQAPGKERELVAAISRDGRTNYADSVKGRFTISRDNAKNTVYLQMNSLKPEDTAVYYCAKDGNHPGAVVYGYWGQRTQVTVSS”, the “polyreactivity (PSR sort gate)” value was “low polyreactivity”. With “QVQLVESGGGLVQAGGSLRLSCAASGSIFFLYAMGWYRQAPGKERELVASISRGDSTNYADSVKGRFTISRDNAKNTVYLQMNSLKPEDTAVYYCAAYRLYWPSTARRYDYWGQGTQVTVSS” the “polyreactivity (PSR sort gate)” value was “low polyreactivity”. With “QVQLVESGGGLVQAGGSLRLSCAASGSIFFLYGMGWYRQAPGKERELVAAIRKRGSSTYYADSVKGRFTISRDNAKNTVYLQMNSLKPEDTAVYYCAAAALGYYGYRGFDYWGQGTQVTVSS” the “polyreactivity (PSR sort gate)” value was “low polyreactivity”. For “QVQLVESGGGLVQAGGSLRLSCAASGSIFFPNAMGWYRQAPGKERELVAAITSTSTNYADSVKGRCTNSRDNAKNTVYLQLNSLKPEDTAVYYCAADGEFRRAWYEGDYWGQGTQVTVSS”, the “polyreactivity (PSR sort gate)” value was “low polyreactivity”. With “QVQLVESGGGLVQAGGSLRLSCAASGSIFFPYAMGWYIQAPGKERELVAAITGSTGSTYYADSVKGRFTISRDNAKNTVYLQMNSLKPEDTAVYYCAAAEYFVSGGIMDYWGQGTQVTVSS” the “polyreactivity (PSR sort gate)” value was “high polyreactivity”. In the case of “QVQLVESGGGLVQAGGSLRLSCAASGSIFFPYTMGWYRQAPGKERELVAAISERGGDTYYADSVKGRFTISRDNAKNTVYLQMNSLKPEDTAVYDCAAATSPISTSDYWGQGTQVTVSS”, the “polyreactivity (PSR sort gate)” value is reported as “low polyreactivity”. In the case of “QVQLVESGGGLVQAGGSLRLSCAASGSIFFPYVMGWYRQAPGKERELVAAITYRAGSTYYADSVKGRFTISRDHAKNTFYLQMNSLKPEDTAVYYCNKEAAPLGFVTSYYGRDYWGQGTQVTVSS”, the “polyreactivity (PSR sort gate)” value is reported as “low polyreactivity”. With “QVQLVESGGGLVQAGGSLRLSCAASGSIFFQNAMGWYRQAPGKERELVATITSSVGSTYYADSVKGRFTISRDNAKNTVYFQMNSLKPEDTAVYYCNVRFFSAALWYTYFGYDYWGQGTQVTVSS” the “polyreactivity (PSR sort gate)” value was “low polyreactivity”. For “QVQLVESGGGLVQAGGSLRLSCAASGSIFFRNAMGWYRQAPGKERELVAAITSGGGTYYADSVKGRLTISRDNAKNTVYLQMNSLKPEDTAVYYCAVVRGSRAIKHYYWGQGTQVTVSS”, the “polyreactivity (PSR sort gate)” value was “high polyreactivity”. For “QVQLVESGGGLVQAGGSLRLSCAASGSIFFRNVMGWYRQAPGKERELVAAISRSGSTNYADSVKGRFTISRDNAKNTVYLQMNSLKPEDTAVYYCAAQQWRRGRYRDTAGPMFAYDYWGQGTQVTVSS”, the “polyreactivity (PSR sort gate)” value was “low polyreactivity”.
